The nature of this data set: yeast display, Sf9 membrane polyspecificity reagent, FACS + sequencing; frameworks hold sequencing errors. The essentials: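 Using colony PCR, genes from sorted yeast display clones were amplified, then sequenced on MiSeq at 2 × 250 and filtered by CDR length. The clones had been stained with 10% biotinylated, detergent-solubilized Sf9 membrane reagent for 1 hour at 4 °C and sorted by FACS into low and high (top ~1%) gates on anti-HA and streptavidin fluorescence. Polyreactivity labels come from the gate of origin.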
In the case of “QVQLVESGGGLVQAGGSLRLSCAASGRTYDNTMGWYRKAHGKESELVAAISWSGGRTRYADSVKGRFTISRDNAKNTVYLQMNSLKPEDTAVYYCAAANGGYPPYRYVYGYYYWGQGTQVTVSS”, the “polyreactivity (PSR sort gate)” value is given as “high polyreactivity”.

Consider “QVQLVESGGGLVQAGGSLRLSCAASGRTYGGYAMGWYRQAPGKERELVAVINWRGGSTYYADSVKGRFTISRDNAKHTVYLQMNILKPEDTAVYYCNKVSLRTQSAQFHYWGQGTQVTVSS”, for which the “polyreactivity (PSR sort gate)” value is given as “high polyreactivity”.

Take “QVQLVESGGGLVQAGGSLRLSCAASGRTYGYAMGSYRPAPGKERELVARITWRGGSTSYADSVKGRFTISRDNAKNTVYLQMNILKPEDTAVYYCAAGFYFPVYTYVRIRYYYWGQGTQVTVSS”: the “polyreactivity (PSR sort gate)” value is reported as “high polyreactivity”.

“QVQLVESGGGLVQAGGSLRLSCAASGRTYGYAMGWYTQAPGIERELVARINRTTGSTYYADSVKGRFTISRDNAKNTVYLQMNSLKPQDTAVYYCAKSSYSRALKLYYWGQGSQVTVSS”: the “polyreactivity (PSR sort gate)” value is “high polyreactivity”.

With “QVQLVESGGGLVQAGGSLRLSCAASGRTYHQYAMGWYRQAPGKERELVARITSGGRTNYADSVKGRFTISRDNAKNTVYLHMNSLKPEDTAVYYCPAASSYYFYISSKLDYWGQGTQVTVSS”, the “polyreactivity (PSR sort gate)” value is “high polyreactivity”.

In the case of “QVQLVESGGGLVQAGGSLRLSCAASGRTYISNVIGWYRQAPGKERELVAAISGSSGSTRYADSVKGRFTISRDNAKNTVYLQMNSLKPEDSAVYYCAARAPWPKWGYYYWGQGTQVTVSS”, the “polyreactivity (PSR sort gate)” value was “high polyreactivity”.

“QVQLVESGGGLVQAGGSLRLSCAASGRTYRYAMGWYRQAPGNERELVAAIRWSGGSTYYADSVKGRFTISRDNAKNTVYIQMNSLKPEDTAVYYCAADSYATRYYYWGQGTQVTVSS”: the “polyreactivity (PSR sort gate)” value was “high polyreactivity”.

As for “QVQLVESGGGLVQAGGSLRLSCAASGRTYVRNGMGWYRQAPGKERELVAAISRGGSTNYADSVKGRFTISRDNAKNTVYLEMNSLKPEDTAVYYCNARTAEYRPYYYRYNYWGQGTQVTLSS”, the “polyreactivity (PSR sort gate)” value is recorded as “high polyreactivity”.

Regarding “QVQLVESGGGLVQAGGSLRLSCAASGRTYVYTMGWYRQAPGKERELVAAIRYSGGRTYYADSVKGRFTISRDNAMNTVYLQMNSLKPEDTAVYYCAARNYATGVRYDYWGQGTQVTVSS”, the “polyreactivity (PSR sort gate)” value was “high polyreactivity”.

“QVQLVESGGGLVQAGGSLRLSCAASGSFFSTYAMGWYRQAPGKERELVAAISVSGSSTYYADSVKGLFTISRDNAKNTVYLQMNSLKPEDTAVYYCNKAFRSVRPRRRYDYWGQGTQVTVSS”: the “polyreactivity (PSR sort gate)” value is given as “low polyreactivity”.

Take “QVQLVESGGGLVQAGGSLRLSCAASGSICYGYTMGWYRQAPGKEREFVAAITGSGGSTYYADSVKGRFTISRDNAKNTVYLQMNSLKPEDTAVYYCAARRYVNRRYDYWGQGTQVTVSS”: the “polyreactivity (PSR sort gate)” value was “high polyreactivity”.

“QVQLVESGGGLVQAGGSLRLSCAASGSIDWNAMGWYRQAPGKEREFVAAISSSGGRTSYADSVKGRFTISRDNAKNTVYLQMNSLKPEDTAVYYCAAAGSYDGDRYYYWGQGTQVTVSS”: the “polyreactivity (PSR sort gate)” value is “high polyreactivity”.

Consider “QVQLVESGGGLVQAGGSLRLSCAASGSIFAANAMGWYRQAPGKEREFVASISRSGGSTYYADSVKGRFTISRDNAKNTVYLQMTSLKPEDTAVYYCATRTRIYSARDHYGYWGQGTQVTVSS”, for which the “polyreactivity (PSR sort gate)” value is recorded as “low polyreactivity”.

Turning to “QVQLVESGGGLVQAGGSLRLSCAASGSIFAANTMGWYRQAPGKERELVAAITGSGASTYYADSVKGRFTISRDNAKNTVYLQMNSLKPEDTAVYYCAARRYTSYYKDGWYAYYYWGQGTQVTVSS”, the “polyreactivity (PSR sort gate)” value is reported as “high polyreactivity”.

As to “QVQLVESGGGLVQAGGSLRLSCAASGSIFAAYAMGGYRQAPGKERELVATIRWTSGSTYYADSVKGRFTISRDNAKNTVYLQMNSLKPEDTAVFYCAAQKNKYYWPRFGYWGQGTQVTGSS”, the “polyreactivity (PSR sort gate)” value is “high polyreactivity”.

Regarding “QVQLVESGGGLVQAGGSLRLSCAASGSIFAAYAMGWYRQAPGKERELVAAISLDDGSTYADSVKGRFTISRDNAKNTVYLQMNSLKPEDTAVYYCNARYKSRLYPRYDYWGQGTQVTVSS”, the “polyreactivity (PSR sort gate)” value is listed as “high polyreactivity”.

As for “QVQLVESGGGLVQAGGSLRLSCAASGSIFADNAMGWDRQAPGKERELVAVISFSGSSTYYADSVKGRFTISRDNAKNTVYFQMNSVKPEDTAVYYWNAVRYRLERFDYWGQGTQVTVSS”, the “polyreactivity (PSR sort gate)” value is recorded as “high polyreactivity”.

Turning to “QVQLVESGGGLVQAGGSLRLSCAASGSIFADYAMGWYRQAPGKERELVAAITGSGGRTYYADSVKGRFTISRDNAKNTVYLQMNSLKPEDTAVYYCAAYQVVWDPYTRYDYWGQGTQVTVSS”, the “polyreactivity (PSR sort gate)” value is “low polyreactivity”.

As for “QVQLVESGGGLVQAGGSLRLSCAASGSIFADYAMGWYRQAPGKERELVAAITYTDDRTYYADSVKGRFTISRDNAKNTVYLQMNSLKPEDTAVYYCNRVFTCRYGYRYEYWGQGSQVTVSS”, the “polyreactivity (PSR sort gate)” value is “high polyreactivity”.

As for “QVQLVESGGGLVQAGGSLRLSCAASGSIFADYTMGWYRQAPGKERELVAPINYRDGGTSYADSVKGRFTISRDKANNTVYLQMNSLKPEDTAVYYCTKQVDLSGQWDYWYGYYTYDYWGPGTQVTVSS”, the “polyreactivity (PSR sort gate)” value is “low polyreactivity”.

Consider “QVQLVESGGGLVQAGGSLRLSCAASGSIFAGNTMGWSRQAPGKEREFVASIRSSSGSTYYADSVKGRFTISRDNAKNTVYLQMNSLKPEDTAVYYCARVAPASGVRWYYYWGQGTQVTVSS”, for which the “polyreactivity (PSR sort gate)” value is “high polyreactivity”.

On to “QVQLVESGGGLVQAGGSLRLSCAASGSIFAGNVMGWYRQAPGKERELVAAISRRGGRTYYADSVKGRFTISRDNAKNTVYLQMNSLKPEDTAVYYCAARRDPVLGNSDFWGQGTQVTVSS”, for which the “polyreactivity (PSR sort gate)” value was “high polyreactivity”.

Consider “QVQLVESGGGLVQAGGSLRLSCAASGSIFAGYAMGLYRQAPGKERELVAAISRSGDSTYYADSVKGRFTISRDNAKNTVYLQMNSLKPEDTAVYYCAAVLSYSYVRYNYWGQGTQVTVSS”, for which the “polyreactivity (PSR sort gate)” value was “high polyreactivity”.

Take “QVQLVESGGGLVQAGGSLRLSCAASGSIFAGYAMGWYRQAPGKERELVAAISWSGGGTYYADSVKGRFTISRDNAKNTVYLQMNSLKPEDTAVYYCNAYGYRHRGNGYWGQGTQVTVSS”: the “polyreactivity (PSR sort gate)” value is “high polyreactivity”.

As for “QVQLVESGGGLVQAGGSLRLSCAASGSIFAGYVMGWYRPAPGKERELVAATYYADSVKGRFTISRDNAKNTVYLQMNSLKPEDTAVYYCNAESLYTHYNDTSLTVEYGYWGQGTQVTVSS”, the “polyreactivity (PSR sort gate)” value was “low polyreactivity”.

Regarding “QVQLVESGGGLVQAGGSLRLSCAASGSIFAHYAMGWYRQAPGKERELVAAISKNAGSTYYADSVKGRFTISRDNAKNTVYLQMNSLKPEDTAVYYCATGYQKPYSSDYWGQGTQVTVSS”, the “polyreactivity (PSR sort gate)” value is on record as “high polyreactivity”.

Consider “QVQLVESGGGLVQAGGSLRLSCAASGSIFAHYTMGWYRQAPGKERELVAAISGSGGSTYYADSVKGRFTISCDNAKNTVYLQMNSLKPEDTAVYYCNKRYRPVGPYDYWGQGTQVTVSS”, for which the “polyreactivity (PSR sort gate)” value is “high polyreactivity”.

“QVQLVESGGGLVQAGGSLRLSCAASGSIFAINAMGWYRQAPGKERELVARISWSGGRTYYADSVKGRFTISRDNAKNTVYLQMNSLKPEDTAVYYCAKRYYKSLNRDEFDSWGQGTQVTVSS”: the “polyreactivity (PSR sort gate)” value is listed as “high polyreactivity”.

Turning to “QVQLVESGGGLVQAGGSLRLSCAASGSIFAKNAMGWYRQAPGKERELVAAISSSGGRTYYADSVKGRFTISRDNAKNTVYLQMNSLKPEDTAVYYCAADLRYIYWSYYYWGQGTQVTVSS”, the “polyreactivity (PSR sort gate)” value is “low polyreactivity”.

Regarding “QVQLVESGGGLVQAGGSLRLSCAASGSIFAKYAMGWYRQAPGKERELVAAISSGGSTYYADSVKGRFTISRDNAKNTVYIQMNSLKPEDTAVYYCAADYGSDYTKGDYWGQGTQVTVSS”, the “polyreactivity (PSR sort gate)” value is recorded as “low polyreactivity”.

The values are drawn from the nanobody polyreactivity screen of Harvey et al. (2022).
